# Measured values published in US20250122303A1, “TREATMENT AND PREVENTION OF CANCER USING HER3 ANTIGEN-BINDING MOLECULES” (Hummingbird Bioscience Pte. Ltd., priority 2021, published 2025).
# Columns and labels:
# [1] = system: OvCAR8 cell-line derived mouse model of ovarian carcinoma; assay: OvCAR8 cell-line derived xenograft model; assay type: in vivo; conditions: OvCAR8, IP biweekly 500 μg, 9 doses
# Method: Tumor volumes were measured 3 times a week using a digital caliper and calculated using the formula [L ×W2/2]. Study End point was considered to have been reaches once the tumors of the control arm measured >1.5 cm in length.
# The model was established by subcutaneous injection of 1×10^6 OvCAR8 cells into the right flanks of female NCr nude mice (n=6 mice per treatment group).
# 10D1 was administered IP, biweekly at 500 μg per dose (for a total of 9 doses); a control treatment group received an equal volume of PBS.
# Tumour cells were inserted with matrigel subcutaneously into the right flanks of female NCr nude mice.
# Murine tumour efficacy studies were performed using cell-line derived xenograft (CDX) models in mice. Female NCr nude mice (5-8 weeks old, 21-29 g) were subcutaneously implanted with N87, A549, FaDu, OvCAR8 cells. Treatment was initiated when tumours reached approximately 100 to 200 mm^3. Vehicle (PBS) or therapeutic antibodies (25 mg/kg) were administered intraperitoneally (IP) at indicated time points (weekly FaDu and OvCAR8, twice weekly N87 and A549). Tumours were measured twice per week using a calliper and tumour volume (mm^3) was calculated. Each data point represents the mean tumour volume ±SEM (n=8 mice).
# human EGFR = molecular target: T1, human EGFR (Homo sapiens, UniProt P00533); assay: ELISA specificity, human EGFR; assay type: binding; conditions: antibody up to 10 μg/ml
# T1 construct: purchased Sino Biological Inc., China
# Method: ELISAs were used to determine the binding specificity of the antibodies. The antibodies were analysed for binding to human HER3 polypeptide, as well as respective mouse, rat and monkey homologues of HER3 (Sino Biological Inc., China). The antibodies were also analysed for their ability to bind to human EGFR and human HER2 (Sino Biological Inc., China).
# ELISAs were carried out according to standard protocols. Briefly, 96-well plates (Nunc, Denmark) were coated with 0.1 μg/ml of target polypeptide in phosphate-buffered saline (PBS) for 16 h at 4° C. After blocking for 1 h with 1% BSA in Tris buffer saline (TBS) at room temperature, the anti-HER3 antibody was serially diluted with the highest concentration being 10 μg/ml, and added to the plate. Post 1 h incubation at room temperature, plates were washed three times with TBS containing 0.05% Tween 20 (TBS-T) and were then incubated with a HRP-conjugated anti-His antibody (Life Technologies, Inc., USA) for 1 h at room temperature. […] The reaction was stopped with 2M H2SO4, and OD was measured at 450 nm.
# The antibodies were analysed for their ability to bind to human HER3 polypeptide as well as human HER1 (EGFR) and human HER2 (Sino Biological Inc., China). […]
# ELISAs were carried out according to standard protocols. […] The reaction was stopped with 2M H2SO4, and OD was measured at 450 nm.
# [2] = molecular target: T2, human HER3 (HEK293 HER3 O/E cells) (Homo sapiens, UniProt P21860); assay: Cell surface antigen-binding by flow cytometry
# T2 construct: expressed in transfected cells; host or cells: HEK293
# Method: The cells were washed thrice with FACS buffer (PBS with 5 mM EDTA and 0.5% BSA) and resuspended in FITC-conjugated anti-FC antibody (Invitrogen, USA) for 40 min at 2-8° C. Cells were washed again and resuspended in 200 μL of FACS flow buffer (PBS with 5 mM EDTA) for flow cytometric analysis using MACSQuant 10 (Miltenyi Biotec, Germany). After acquisition, all raw data were analyzed using Flowlogic software. Cells were gated using forward and side scatter profile percentage of positive cells was determined for native and overexpressing cell populations.
# The cells were washed with buffer (PBS with 2 mM EDTA and 0.5% BSA) and resuspended in FITC-conjugated anti-FC antibody (Invitrogen, USA) at 10 μg/ml for 20 min at 4° C. Cells were washed again and resuspended in 200 μL of FACS flow buffer (PBS with 5 mM EDTA) for flow cytometric analysis using MACSQuant 10 (Miltenyi Biotec, Germany). Unstained WT and transfected HEK293 cells were included in the analysis as negative controls. After acquisition, all raw data were analyzed using Flowlogic software. Cells were gated using forward and side scatter profile percentage of positive cells was determined for native and overexpressing cell populations.
molecule,measurement,setting,value
"10D1: anti-HER3 antibody clone, VH SEQ ID NO:24, VL SEQ ID NO:74; [1] of Example 2.2 (antibody, V domains shown) VH: DVQLQESGPDLVKPSQSLSLTCTVTGYSITSGYSWHWIRQFPGNKLEWMGSIHYSGGTNYNPSLKSRISITRDTSKNQFFLQLNSVTTEDTATYFCARMTTAPRYPFDYWGQGTTLTVSS VL: DIVMTQSQKFMSTSVGDRVSVTCKASQIVGSNVAWYQQKPGQSPKPLIYSASYRYSGVPDRFTASGSGTDFTLTITNVQSEDLAEYFCQQYSSHPLTFGAGTKLELK",inhibition of tumor growth,[1],~74%
same,binding to human EGFR (HER1),human EGFR,not to bind
same,extent of binding to human HER3-expressing cells,[2]; 10 μg/ml antibody,bind to human HER3-expressing cells to a similar extent
same,extent of binding to human HER3-expressing cells,[2]; 20 μg/ml antibody,bind to human HER3-expressing cells to a similar extent
